T1: Human ST2 (human, UniProt Q01638 19-328, limits assumed)
T1 construct: also called human ST2 protein; Interleukin 1 receptor-like 1
T1 sequence (looked up): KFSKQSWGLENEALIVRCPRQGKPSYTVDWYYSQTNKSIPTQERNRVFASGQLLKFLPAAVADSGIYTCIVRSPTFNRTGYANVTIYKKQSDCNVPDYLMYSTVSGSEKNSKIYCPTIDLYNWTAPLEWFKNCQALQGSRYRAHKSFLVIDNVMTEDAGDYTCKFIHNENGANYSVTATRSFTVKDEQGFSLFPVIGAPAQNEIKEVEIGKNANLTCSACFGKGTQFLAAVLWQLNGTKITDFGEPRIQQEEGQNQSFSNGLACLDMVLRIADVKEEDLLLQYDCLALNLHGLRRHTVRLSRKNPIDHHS

T2: Mouse ST2 (mouse, UniProt P14719 27-332, limits assumed)
T2 construct: also called mouse ST2 protein
T2 sequence (looked up): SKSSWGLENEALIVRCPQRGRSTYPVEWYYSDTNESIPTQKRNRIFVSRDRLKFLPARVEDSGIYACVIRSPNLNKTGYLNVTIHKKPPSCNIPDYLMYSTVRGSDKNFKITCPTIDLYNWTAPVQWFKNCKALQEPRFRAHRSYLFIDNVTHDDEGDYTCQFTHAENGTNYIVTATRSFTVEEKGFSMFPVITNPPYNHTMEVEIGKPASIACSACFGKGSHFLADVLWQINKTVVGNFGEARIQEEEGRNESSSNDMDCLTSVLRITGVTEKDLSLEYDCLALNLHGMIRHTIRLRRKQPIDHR


How the values were obtained:
Human ST2 = biological target: T1, Human ST2; assay: SPR (Carterra), antibody immobilized, ST2 analyte, 1:1
Protocol: (§1) Binding of the reformatted human ST2 antibodies to the human and mouse ST2 proteins was evaluated by surface plasmon resonance (SPR), using a high throughput antibody screening and characterization platform from Carterra (Salt Lake City, Utah).

Mouse ST2 = biological target: T2, Mouse ST2; assay: as above
Protocol: as §1

Binder	Kd (Human ST2)	koff (Human ST2)	kon (Human ST2)	Kd (Mouse ST2)	koff (Mouse ST2)	kon (Mouse ST2)
Human ST2 IgG1 Antibody 107 (antibody, V domains shown, IgG1, kappa) VH: QVQLVQSGAQVKKPGASVKVSCKASGGTFSSYTISWVRQAPGQGLEWMGVIYPSGDITVYAQEFQGRVTMTRDTSTSTVYMELSSLRSEDTAVYYCARAWARYFDYWGQGTLVTVSS VL: DIQMTQSPSSLSASVGDRVTITCQASQDISNYLNWYQQKPGKAPKLLIYDASNLQAGVPSRFSGSGSGTDFTLTISSLQPEDFATYYCQQSYSSPITFGQGTRLEIKR	465 nM	0.062 s⁻¹	130000 M⁻¹ s⁻¹			
Human ST2 IgG1 Antibody 106 (antibody, V domains shown, IgG1, kappa) VH: QVQLVQSGAEVKKPGSSVKVSCKASGYTFTDYYIHWVRQAPGQGLEWMGGIIPIYGTANYAQKFQGRVTITADESTSTAYMELSSLRSEDTAVYYCARTNWGMDVWGQGTTVTVSS VL: EIVMTQSPATLSVSPGERATLSCRASQGIPSNSLAWYQQKPGQAPRLLIYGTSARASGIPARFSGSGSGTEFTLTISSLQSEDFAVYYCQQYYSTPWTFGQGTKVEIKR	616 nM	0.15 s⁻¹	240000 M⁻¹ s⁻¹			
Human ST2 IgG1 Antibody 104 (antibody, V domains shown, IgG1, kappa) VH: QVQLVQSGAEVKKPGSSVKVSCKASGYTFTNYAIIWVRQAPGQGLEWMGGIIPVFGTADYTQTFQGRVTITADESTSTAYMELSSLRSEDTAVYYCARVSTNYYDSSGYYAFDYWGQGTLVTVSS VL: DIQMTQSPSSLSASVGDRVTITCRASQSISSYLNWYQQKPGKAPKLLIYDASSLQSGVPSRFSGSGSGTDFTLTISSLQPEDFATYYCQQTYHTPWTFGQGTKVEIKR	121 nM	0.061 s⁻¹	510000 M⁻¹ s⁻¹	684 nM	0.096 s⁻¹	140000 M⁻¹ s⁻¹

More lines, in order of falling Kd (Human ST2), values ahead:

Kd (Human ST2)	koff (Human ST2)	kon (Human ST2)	Kd (Mouse ST2)	koff (Mouse ST2)	kon (Mouse ST2)	Binder
256 nM	0.095 s⁻¹	370000 M⁻¹ s⁻¹	172 nM	0.07 s⁻¹	410000 M⁻¹ s⁻¹	Human ST2 IgG1 Antibody 105 (antibody, V domains shown, IgG1, kappa) VH: EVQLLESGGGLVQPGGSLRLSCAASGFTFSSYAMHWVRQAPGKGLEWVAVMSYDGRHEYYADSVKGRFTISRDNSKNTLYLQMNSLRAEDTAVYYCASTDYDIGGYSLPLDYWGQGTLVTVSS VL: DIQMTQSPSSLSASVGDRVTITCRASQSVSSWLAWYQQKPGKAPKLLIYAASNLQSGVPSRFSGSGSGTDFTLTISSLQPEDFATYYCQQSYDVPWTFGQGTRLEIKR
140 nM	0.0063 s⁻¹	45000 M⁻¹ s⁻¹	211 nM	0.0058 s⁻¹	27000 M⁻¹ s⁻¹	Human ST2 IgG1 Antibody 103 (antibody, V domains shown, IgG1, kappa; also called ST2 Antibody 103) VH: QVQLVQSGAEVKKPGASVKVSCKASGYTFTSYYMHWVRQAPGQGLEWMGWMNPNSGNTGYAQKFQGRVTMTRDTSTSTVYMELSSLRSEDTAVYYCARETSFDYYYGMDVWGQGTTVTVSS VL: DIQMTQSPSSLSASVGDRVTITCRASQSISNWLAWYQQKPGKAPKLLIYDGSNLGTGVPSRFSGSGSGTDFTLTISSLQPEDFATYYCLQDFTYPLTFGGGTKVEIKR
28 nM	0.0056 s⁻¹	200000 M⁻¹ s⁻¹				Human ST2 IgG1 Antibody 108 (antibody, V domains shown, IgG1, kappa; also called ST2 Antibody 108) VH: QVQLVQSGAEVKKPGASVKVSCKASGNTFTAYYMHWVRQAPGQGLEWMGIINPSGGSTSYAQKFQGRVTMTRDTSTSTVYMELSSLRSEDTAVYYCARGVGATNYWGQGTLVTVSS VL: DIQMTQSPSSLSASVGDRVTITCRASQGISNNLNWYQQKPGKAPKLLIYAASSLQSGVPSRFSGSGSGTDFTLTISSLQPEDFATYYCQQGFNFPLTFGGGTKVEIKR
10 nM	0.0061 s⁻¹	600000 M⁻¹ s⁻¹	1.1 nM	0.0013 s⁻¹	1.1e+06 M⁻¹ s⁻¹	Human ST2 IgG1 Antibody 109 (antibody, V domains shown, IgG1, kappa) VH: QVQLVQSGAEVKKPGSSVKVSCKASGYRFTDYYIHWVRQAPGQGLEWMGIIQPTGGGTTYAQKFQGRVTITADESTSTAYMELSSLRSEDTAVYYCARVGATVTKNYYYYYGMDVWGQGTTVTVSS VL: not shown

Reference: US20210403579A1 (DELINIA, published 2021)
